In paper PMC8133684, “The URL1–ROC5–TPL2 transcriptional repressor complex represses the ACL1 gene to modulate leaf rolling in rice”:

T1: GST-URL1 (ROC8) (Oryza sativa L., UniProt Q69T58 1-710)
T1 sequence: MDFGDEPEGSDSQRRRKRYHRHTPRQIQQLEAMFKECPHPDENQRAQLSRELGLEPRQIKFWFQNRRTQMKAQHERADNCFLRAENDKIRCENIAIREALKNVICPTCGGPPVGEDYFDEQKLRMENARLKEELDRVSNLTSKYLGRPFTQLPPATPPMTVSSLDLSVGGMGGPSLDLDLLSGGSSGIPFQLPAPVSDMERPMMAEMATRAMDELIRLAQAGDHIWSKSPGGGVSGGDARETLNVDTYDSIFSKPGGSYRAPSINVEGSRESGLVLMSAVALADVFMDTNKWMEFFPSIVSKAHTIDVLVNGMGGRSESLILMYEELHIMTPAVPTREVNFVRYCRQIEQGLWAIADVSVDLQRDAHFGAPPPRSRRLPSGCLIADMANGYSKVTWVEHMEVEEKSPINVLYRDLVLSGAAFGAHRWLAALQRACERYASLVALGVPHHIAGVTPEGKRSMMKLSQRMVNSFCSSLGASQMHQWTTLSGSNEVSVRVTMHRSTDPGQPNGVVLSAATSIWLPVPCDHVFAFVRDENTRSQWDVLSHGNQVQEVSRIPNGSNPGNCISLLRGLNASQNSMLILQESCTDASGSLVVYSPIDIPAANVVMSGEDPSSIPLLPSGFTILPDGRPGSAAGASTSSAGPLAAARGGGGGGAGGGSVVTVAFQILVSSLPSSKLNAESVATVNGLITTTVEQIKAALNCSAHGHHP


Tests used:
GST-URL1 (ROC8) [1] = target: T1, GST-URL1 (ROC8); experiment: EMSA; LightShift Chemiluminescent EMSA Kit; buffer, salt, pH and temperature not stated; conditions: protein: recombinant; tags: N-terminal GST (pCold-GST); chain copies: 2; label: 3' biotin; blunt
GST-URL1 (ROC8) [2] = target: T1, GST-URL1 (ROC8); experiment: competition; 100-, 300-, 1000-fold excess vs labeled L1-box II probe; LightShift Chemiluminescent EMSA Kit; buffer, salt, pH and temperature not stated; conditions: protein: recombinant; tags: N-terminal GST (pCold-GST); chain copies: 2; blunt
GST-URL1 (ROC8) [3] = target: T1, GST-URL1 (ROC8); experiment: competition; 100-, 300-, 1000-fold excess vs labeled L1-box I probe; LightShift Chemiluminescent EMSA Kit; buffer, salt, pH and temperature not stated; conditions: protein: recombinant; tags: N-terminal GST (pCold-GST); chain copies: 2; blunt

Row | Binder | binding result (GST-URL1 (ROC8) [1]) | also measured
1 | mACL1 L1-box II (L1 box deleted) (dsDNA) DNA 1: TTATCATAAAAGAAACTATAATATTAACTTACATTACTTTAAGGCAA DNA 2: TTGCCTTAAAGTAATGTAAGTTAATATTATAGTTTCTTTTATGATAA | no binding | –
2 | mACL1 L1-box I (L1 box deleted) (dsDNA) DNA 1: ACCGACTAATGGCAATATAAAGATATACCATATCCTGTACTAAGCAATAACCTA DNA 2: TAGGTTATTGCTTAGTACAGGATATGGTATATCTTTATATTGCCATTAGTCGGT | no binding | –
3 | ACL1 L1-box II unlabeled competitor (dsDNA) DNA 1: TTATCATAAAAGAAACTATAATATTAACTTATACATTTACATATTTATACTAAATTTTTAAATAAGGCAA DNA 2: TTGCCTTATTTAAAAATTTAGTATAAATATGTAAATGTATAAGTTAATATTATAGTTTCTTTTATGATAA | – | binding result (GST-URL1 (ROC8) [2]): binds
4 | ACL1 L1-box I unlabeled competitor (dsDNA) DNA 1: CCGACTAATGGCAATATATACGTGCAAAGATACATTTATATACCATATCCTGTACTAAGCAATAACCTA DNA 2: TAGGTTATTGCTTAGTACAGGATATGGTATATAAATGTATCTTTGCACGTATATATTGCCATTAGTCGG | – | binding result (GST-URL1 (ROC8) [3]): binds
